Measurements as given in US20200369765A1.

Target: Siglec-7 and/or Siglec-9 on fresh purified human NK cells
Experiment: flow cytometry on fresh purified human NK cells, mean of 4 donors

Row | Binder | EC50
1 | mAb1 (antibody, human IgG1, V domains shown) VH: DVQLQESGPGLVKPSQSLSLTCTVTGYSITGGFAWNWIRQFPGNTLEWMGYIGYGGSTSYNPSLNSRISITRDTSKNHFFLQFNSVTTDDSATYYCARGDYLFAYWGQGTLVTVSA VL: DIVMTQSHKFMSTSVGDRVSITCKASQDVNTAVAWYQQKPGQSPKLLIYSASYRYTGVPDRFTGSGSGTDFTFTISSVQAEDLAVYYCQQHYSTPRTFGGGTKLEIK | 0.05 µg/mL
2 | mAb2 (antibody, human IgG1, V domains shown) VH: EVQLQESGPGLVKPSQSLSLTCTVTGYSITGGFAWNWIRQFPGNTLEWMGYIGYGGSTSYNPSLNSRISITRDTSKNHFFLQFNSVTTEDSATYYCARGDYLFAYWGQGTLVTVSA VL: DIVMTQSHKFMSTSVGDRVSITCKASQDVNTAVAWYQQKPGQSPKLLIYSASYRYTGVPDRFTGSGSGTDFTFTISSVQAEDLAVYYCQQHYSTPRTFGGGTKLEIK | 0.07 µg/mL
3 | mAb3 (antibody, human IgG1, V domains shown) VH: EVQLLETGPGLVKPSQSLSLTCTVTGYSITGGFAWNWIRQFPGNTLEWMGYIGYGGSTSYNPSLNSRISITRDTSKNHFFLQFNSVTTEDSATYYCARGDYLFAYWGQGTLVTVSA VL: DILMTQSPASLSASVGETVSITCRASGNIHNYLAWYLQRQGKSPQLLVYNAKTLADGVPSRFSGTGSGTQFSLKINSLQPEDFGSYYCQHFWSTPRTFGGGTKLEIK | 0.19 µg/mL
4 | mAb4 (antibody, human IgG1, V domains shown) VH: DVQLVESGGDLVKPGGSLKLSCAASGFAFSSYDMSWVRQSPEKRLEWIAHIGSGGGNIYYPDTVKGRFTISRDNAKNTLYLQMRSLKSEDTAMYYCARLIFTTGFYGMDYWGQGTSVTVSS VL: DIQMTQTTSSLSASLGDRVTISCRASQDISSYLNWYQQKPDGTIKLLIYYTSRLHSGVPSRFSGSGSGTDYSLTISNLDQDDIATYFCQQGNALPWTFGGGTKLEIK | 0.61 µg/mL

Other lines, results leading:

Row | EC50 | Binder
5 | 1.27 µg/mL | mAb5 (antibody, human IgG1, V domains shown) VH: EIQLQQSGPELEKPGASVKISCKASGYSFSDYNMNWVKQSNGKSLEWIGNIDPYYGATSYNQRFKGKATLTVDKSSSTAYMQLKSLTSEDSAVYYCARGDSLFAYWGHGTLVTVSA VL: DIVMTQSQEFMSTSLGDRVSVTCKASQNVGTNVAWYQQKPGQSPKALLYSASSRYSGVPDRFTGSGSGTDFTLTISNVQSEDLAEYFCQQYITYPYTFGGGTKLEIK
6 | 1.3 µg/mL | mAb6 (antibody, human IgG1, V domains shown) VH: EIQLQQSGPELEKPGASVKISCKASGYSFSDYNMNWVKQSNGKSLEWIGNIDPYYGATSYNQRFKGKATLTVDKSSSTAYMQLKSLTSEDSAVYYCARGDSLFAYWGQGTLVTVSA VL: DIVMTQSQEFMSTSLGDRVSVTCKASQNVGTNVAWYQQKPGQSPKALLYSASSRYSGVPDRFTGSGSGTDFTLTINNMQSEDLAEYFCQQYITYPYTFGGGTKLEIK
